From PMC7611338 (Current biology : CB, 2021)

Molecular target: the molecule itself
Assay: fluorescence correlation spectroscopy

B1: dE-cad^WT::GFP (Drosophila E-cadherin, wild type, GFP-tagged) (natural protein)
chain: PGQSYAIIVRAYNVVPDPPQDAQIEVRIRVVESSIKPPSFVNPIDTPIYLKENLKNFTHPIATLRAVSNMPDKPEVIFELNTGRTEQTNSKNTFVFNQIGNEVTISLGKTLDYEAITDYTLTMIVRNTHELGTEHQIKIQVEDVNDNIPYYTEVKSGTILENEPPGTPVMQVRAFDMDGTSANNIVSFELADNREYFTIDPNTGNITALTTFDREERDFYNVKVIASDNSPSSLFDNGEPNRGHQVFRISIGDKNDHKPHFQQDKYLAERLLEDANTNTEVIEVKAEDEDNASQILYSIESGNVGDAFKIGLKTGKITVNQKLDYETITEYELKVRAFDGIYDDYTTVVIKIEDVNDNPPVFKQDYSVTILEETTYDDCILTVEAYDPDIKDRNADQHIVYSIHQNDGNRWTIDNSGCLRLVKTLDRDPPNGHKNWQVLIKANDEDGVGTTVSTVKEVTVTLKDINDNAPFLINEMPVYWQENRNPGHVVQLQANDYDDTPGAGNFTFGIDSEATPDIKTKFSMDGDYLHANVQFDREAQKEYFIPIRISDSGVPRQSAVSILHLVIGDVNDNAMSEGSSRIFIYNYKGEAPETDIGRVFVDDLDDWDLEDKYFEWKDLPHDQFRLNPSTGMITMLVHTAEGEYDLSFVVTEDSMFVPRHSVDAYVTVVVRELPEEAVDKSGSIRFINVTKEEFISVPRDFQSPDALSLKDRLQLSLAKLFNTSVSNVDVFTVLQNENHTLDVRFSAHGSPYYAPEKLNGIVAQNQQRLENELDLQMLMVNIDECLIEKFKCEESCTNELHKSSVPYMIYSNTTSFVGVNAFVQAQCVCEAPLMRRCLNGGSPRYGENDVCDCIDGFTGPHCELVSVAFYGSGYAFYEPIAACNNTKISLEITPQIDQGLIMYLGPLNFNPLLAISDFLALELDNGYPVLTVDYGSGAIRIRHQHIKMVADRTYQLDIILQRTSIEMTVDNCRLSTCQTLGAPIGPNEFLNVNAPLQLGGTPVDLEQLGRQLNWTHVPNQKGFFGCIRNLTINEQTYNLGMPSVFRNIDSGCQQSVAVAFSFGIDRNFIIAIIVCLALLLIILLAVVVQKKQKNGWHEKDIDDIRETIINYEDEGGGERDTDYDLNVLRTQPFYEEKLYKDPHALQGNMRDPNDIPDIADFLGDKKENCDRDVGATTVDDVRHYAYEGDGNSDGSLSSLASCTDDGDLNFDYLSNFGPRFRKLADMYGEEPSDTDSNVDDDQGWRI
In the case of B1, the “stoichiometry N” value is reported as about 4.
